Residue numbers refer to the chain shown, from its start. Numbers in names are those of the source.
How the values were obtained:
Experiment in all cases: spectrophotometric acylation assay, microplate (absorbance loss of CoA ester)
Conditions in all cases: 2.5 mM polyamine acceptor (text b49: spermidine; table title and b21: spermine), pH 9.0, 30 °C, Tris-HCl, 10 mM EDTA
[1] = substrate: CC(C)(COP(=O)(O)OP(=O)(O)OC[C@H]1O[C@@H](n2cnc3c(N)ncnc32)[C@H](O)[C@@H]1OP(=O)(O)O)[C@@H](O)C(=O)NCCC(=O)NCCSC(=O)/C=C/c1ccc(O)cc1; format: biochemical, Solanum virginianum
Description: (§1) spectrophotometric acylation assay, microplate (absorbance loss of CoA ester) on SmSHT

[2] = substrate: COc1cc(/C=C/C(=O)SCCNC(=O)CCNC(=O)[C@H](O)C(C)(C)COP(=O)(O)OP(=O)(O)OC[C@H]2O[C@@H](n3cnc4c(N)ncnc43)[C@H](O)[C@@H]2OP(=O)(O)O)ccc1O; format: biochemical, Solanum virginianum
Description: as §1

[3] = substrate: CC(C)(COP(=O)(O)OP(=O)(O)OC[C@H]1O[C@@H](n2cnc3c(N)ncnc32)[C@H](O)[C@@H]1OP(=O)(O)O)[C@@H](O)C(=O)NCCC(=O)NCCSC(=O)/C=C/c1ccc(O)c(O)c1; format: biochemical, Solanum virginianum
Description: as §1

[4] = substrate: CC(C)(COP(=O)(O)OP(=O)(O)OC[C@H]1O[C@@H](n2cnc3c(N)ncnc32)[C@H](O)[C@@H]1OP(=O)(O)O)[C@@H](O)C(=O)NCCC(=O)NCCSC(=O)/C=C/c1ccc(O)cc1; format: biochemical, Solanum richardii
Description: (§2) spectrophotometric acylation assay, microplate (absorbance loss of CoA ester) on SrSHT

[5] = substrate: COc1cc(/C=C/C(=O)SCCNC(=O)CCNC(=O)[C@H](O)C(C)(C)COP(=O)(O)OP(=O)(O)OC[C@H]2O[C@@H](n3cnc4c(N)ncnc43)[C@H](O)[C@@H]2OP(=O)(O)O)ccc1O; format: biochemical, Solanum richardii
Description: as §2

[6] = substrate: CC(C)(COP(=O)(O)OP(=O)(O)OC[C@H]1O[C@@H](n2cnc3c(N)ncnc32)[C@H](O)[C@@H]1OP(=O)(O)O)[C@@H](O)C(=O)NCCC(=O)NCCSC(=O)/C=C/c1ccc(O)c(O)c1; format: biochemical, Solanum richardii
Description: as §2

B1: SmSHT (Solanum virginianum) (protein)
chain: MKVILKNHWVVKPAAPTWTGTVSLSEFDQTFAVTHVPTIYYYKFVQDFITSTDEIIKTLKTSLSEALVHFYPLAGRLRWISGSRLELECDASGVVLTEAETDAKLDDLDSFLLSPNYNSLFPRVDYTIPIDELPLLFVQLTKFQCGGIALSFAISHAVVDGHSALYFFSEWARLSRGEPLMFAPFHDRKVLRAGEPAIACPTFEHLQFNTPPLLIGKSSTENEKKKETKGSMLKLTKLQVEMLREKANQGRNLEDSRERSYTRYEVVTAHIWRCACKARGHKFEQPTNLCICVDIRRRMDPPLPSSYFGNAIVDVIATGASGDIVLSPLECAAKRVREAIKMVTSDYANSTINFLKKEEDLSKYQDIHAFRNKEGPFYGNPNLGVISWISLPVLGLDFGWGKEFHMSPGIHEYDGDCVILPDNEGDGSLTVAIVLQEAHVDAFKKFFYEDIEC
notes: full-length ORF, 453 residues, pET-32a(+) N-terminal His-tag (73 kDa with tag, 51 kDa predicted), E. coli, Ni-NTA purified
[1]
  Km: 29.6 ± 5.8 µM
  kcat: 3.02 ± 0.122 s⁻¹
  kcat/Km: 102000 ± 3330 M⁻¹ s⁻¹
[2]
  Km: 27.3 ± 5.6 µM
  kcat: 3.87 ± 0.205 s⁻¹
  kcat/Km: 142000 ± 8330 M⁻¹ s⁻¹
[3]
  Km: 58.3 ± 1.7 µM
  kcat: 7.36 ± 0.185 s⁻¹
  kcat/Km: 127000 ± 3330 M⁻¹ s⁻¹

B2: SrSHT (Solanum richardii) (protein)
chain: B1 chain with C200S, P286S, R297K, L326S, K402E
notes: full-length ORF, 453 residues, pET-32a(+) N-terminal His-tag (73 kDa with tag, 51 kDa predicted), E. coli, Ni-NTA purified; natural ortholog differing from SmSHT by C200S, P286S, R297K, L326S, K402E
[4]
  Km: 38.4 ± 3.3 µM
  kcat: 4.33 ± 0.243 s⁻¹
  kcat/Km: 113000 ± 6670 M⁻¹ s⁻¹
[5]
  Km: 51.3 ± 10.6 µM
  kcat: 6.88 ± 1 s⁻¹
  kcat/Km: 133000 ± 20000 M⁻¹ s⁻¹
[6]
  Km: 67.1 ± 7.6 µM
  kcat: 10.1 ± 0.483 s⁻¹
  kcat/Km: 150000 ± 6670 M⁻¹ s⁻¹

From PMC5142293, “Characterization of spermidine hydroxycinnamoyl transferases from eggplant (Solanum melongena L.) and its wild relative Solanum richardii Dunal” (Horticulture Research, 2016)
